The values below come from US20250346638.

This data set deals with TNF ATF 3 (synthetic construct). Briefly: cell_activity. The conditions noted are these: TNF ELISA about 100 pg/mL with CD3/CD28 Dynabeads vs shock; about 3-fold with stimulation cocktail and BFA (FIG. 15).
TNF ATF 3 (synthetic construct), sequence (chain, as listed by the source): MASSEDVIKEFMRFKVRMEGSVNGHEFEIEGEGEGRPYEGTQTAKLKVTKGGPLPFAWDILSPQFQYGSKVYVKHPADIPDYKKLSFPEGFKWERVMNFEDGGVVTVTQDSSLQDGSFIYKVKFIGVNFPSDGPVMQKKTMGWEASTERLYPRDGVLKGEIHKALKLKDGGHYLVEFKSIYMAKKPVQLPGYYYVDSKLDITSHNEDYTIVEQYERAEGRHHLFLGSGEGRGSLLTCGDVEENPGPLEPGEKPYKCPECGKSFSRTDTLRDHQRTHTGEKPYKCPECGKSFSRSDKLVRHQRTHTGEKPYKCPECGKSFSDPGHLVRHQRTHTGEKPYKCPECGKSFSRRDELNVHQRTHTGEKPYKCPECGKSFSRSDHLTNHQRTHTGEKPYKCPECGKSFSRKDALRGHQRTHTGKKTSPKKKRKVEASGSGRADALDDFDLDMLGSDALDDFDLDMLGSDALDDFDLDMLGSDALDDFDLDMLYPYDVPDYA

With TNF promoter ATF 3 target, the activity is 5 fold.
